The test system of this data set is MS2 coat protein. As to the kind of experiment: apparent KD of MS2 coat protein; designed switch direction (-1 OFF switch, 1 ON switch): -1; higher = weaker reporter binding. The method in brief: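 Apparent KD, taken as the median over clusters for each design, was obtained by curve-fitting normalised cluster fluorescence. Designed RNA switches had been transcribed on Illumina chips by stalled E. coli RNA polymerase and titrated with SNAP-549-labelled MS2 coat protein, doubling from 0.7 or 1.5 nM to 3 µM.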

The mark [1] stands for this setting: Eterna round: R95, input ligand: microRNA oligo, concentration not stated.
Where [2] appears, read: Eterna round: R95, input ligand: FMN 200 uM.
Where [3] appears, read: Eterna round: R95, input ligand: none.
Where [4] appears, read: input ligand: microRNA oligo, concentration not stated.

Regarding “AGUGCGUAUGUGAGGAUAUGCUGGUCCUUGGCUCGGCAGAAGGCACAUGAGGAUCACCCAUGUGGUGUCGUACC [salish99_Bmod_ex4_059] (puzzle: Brourd's mod of Exclusion 4)”, the “apparent KD of MS2 coat protein” value under setting [1] is 25 nM.
In the case of “AGUGCGUAUGUGAGGAUAUGCUGGUCCUUGGCUCGGCAGAAGGCACAUGAGGAUCACCCAUGUGGUGUCGUACU [salish99_Bmod_ex4_066] (puzzle: Brourd's mod of Exclusion 4)”, the “apparent KD of MS2 coat protein” value under setting [1] is 148 nM.
In the case of “AGUGCUGCAGGAUAUUCUAUUAAUUACAUGAGGAUCACCCAUGUGAAUGGACAAGGGUGUGAAGAAGGGUGGUGCG [Omei Ex5 A17h] (Eterna round: R97, puzzle: Exclusion 5)”, the “apparent KD of MS2 coat protein” value (input ligand: FMN 200 uM) was determined as 375 nM and the “apparent KD of MS2 coat protein” value (input ligand: none) is 605 nM.
“AGUGCUGGCGCGUCGGUGUUGGUACAAUAAGCUUGUGAAACAUGAGGAUCACCCAUGUCCUCAUAAGCUCGUCUUAU [salish99_TOv2_r2_084] (puzzle: Sensor v3, turn-off variant 2)”: the “apparent KD of MS2 coat protein” value came to 17.6 nM under setting [2], 553 nM under setting [1] and 16.9 nM under setting [3].
The like results for “AGUGGGCUAGGAUAUCGAUGAACUCACAUGAGGAUCACCCAUGUGUCUUCGGUGGGCGCGCGAGAAGGAGUGAGAU [Belaange] (puzzle: Exclusion 5)” were, in that order, 63.6 nM, 26.9 nM and 37.9 nM.
Consider “AGUGUGUGGCAGGAUAUGCGAUUUAUAGGUGAAGCAGAAGGGUCUACAUGAGGAUCACCCAUGUGUGCGGUUGA [Ex6 #21] (Eterna round: R97, puzzle: Exclusion 6)”, for which the “apparent KD of MS2 coat protein” value runs as follows: (input ligand: FMN 200 uM) 318 nM; (input ligand: none) 160 nM.
Take “AGUUAGAUAGGAUAUGCCCGAGAUAACAUGAGGAUCACCCAUGUGACCGAAUCUAUUCUAGCAGAAGGGUUUAGGA [Mod of ViennaUCT 18 - Jieux - Exclusion 5] (Eterna round: R97, puzzle: Exclusion 5)”: the “apparent KD of MS2 coat protein” value reads like this: (input ligand: FMN 200 uM) 23.6 nM; (input ligand: none) 31.3 nM.
The like results for “AGUUGGCGAGGAUAUACAUGAGGAUCACCCAUGUGAAAUCCAAGUGAGGAAAUGAAAAGUAGAAGGCGCUGACA [Mod of Mat 23 - Jieux - Exclusion 3] (Eterna round: R97, puzzle: Exclusion 3)” were, in that order, 50 nM and 20.8 nM.
As for “AGUUGGCGAGGAUAUACAUGAGGAUCACCCAUGUGAGAGAAUAAAGUGAGGAAGAAAAGUAGAAGGCGCUGACG [Mat - Exclusion 3 - Mod of Salish D7] (puzzle: Exclusion 3)”, the “apparent KD of MS2 coat protein” value by setting is: under setting [2], 61.1 nM; under setting [1], 52 nM; under setting [3], 53.8 nM.
As for “AUAAAAGCAGGAUAUGCGCGGUGUGAUGCCGCAUGCUCGUCACAUGAGGAUCACCCAUGUAGAAGGGCUAAAUG [Diramadidi] (Eterna round: R97, puzzle: Exclusion 2)”, the “apparent KD of MS2 coat protein” value was 19.3 nM (input ligand: FMN 200 uM) and 15.6 nM (input ligand: none).
Take “AUAAAGAACUCAGGAUAUUAGAGAAACGGACAUGAGGAUCACCCAUGUGCGCCUGAUGCCGAGAAUAAGAAGGGAGAAUAGAAA [Rearbi] (Eterna round: R96, puzzle: Exclusion NG 2)”: the “apparent KD of MS2 coat protein” value (input ligand: FMN 200 uM) is 131 nM, the “apparent KD of MS2 coat protein” value under setting [4] is 16.7 nM and the “apparent KD of MS2 coat protein” value (input ligand: none) stood at 27.4 nM.
As for “AUAAAGCAAGCAUGAUCCCACAUGAGGAUCACCCAUGUGUUCGUCUUAUAGGCUGCUGAGGCUUUUGCCUCGGUGGC [LRO Sensor-off var1-06 loose mod of D91 from Mat747] (Eterna round: R97, puzzle: Sensor, turn-off variant 1)”, the “apparent KD of MS2 coat protein” value reads like this: (input ligand: FMN 200 uM) 69 nM; (input ligand: none) 67.9 nM.
For the sequence “AUAAAUCAUGUAGGAUAUGCGUGGCGAAGCUAUGCAGAAGGACAUGAGGAUCACCCAUGUGCUUCCGUCUGCGUACAGACGGAA [Mat - Exclusion NG 1 - Mod of JL - D35] (Eterna round: R96, puzzle: Exclusion NG 1)”, the “apparent KD of MS2 coat protein” value was 64.8 nM (input ligand: FMN 200 uM), 228 nM under setting [4] and 190 nM (input ligand: none).
As for “AUAAGCUUUUAAAUCCUUAACAUGAGGAUCACCCAUGUUCGUCUUAUGAUGGUCUGAUCCCUGAGGAUCGGACCGUU [JL-sv1-2.03 Brourd Mod] (puzzle: Sensor v3, turn-off variant 1)”, the “apparent KD of MS2 coat protein” value worked out at 29.2 nM under setting [2], 95 nM under setting [1] and 30.9 nM under setting [3].
As for “AUAAGUGAUAAGGAUAUUACUAGCUUCGGCUAGUGAGAAGGUAUCACAUGAGGAUCACCCAUGUGUUCCAAUAA [Ex6/7-B1] (Eterna round: R97, puzzle: Exclusion 6)”, the “apparent KD of MS2 coat protein” value reads like this: (input ligand: FMN 200 uM) 270 nM; (input ligand: none) 119 nM.
The like results for “AUAAUGUAAGGAUAUCAGUCGACUAGCGAUAGCUAGUCGACUGAGAAGGUACAUGAGGAUCACCCAUGUGAAUA [E4/16-A4] (Eterna round: R97, puzzle: Exclusion 4)” were, in that order, 213 nM and 46 nM.
The like results for “AUAAUGUAAGGAUAUCAGUCGACUAGCUGCGGCUAGUCGACUGAGAAGGUACAUGAGGAUCACCCAUGUGAUUA [E4/10-A3] (Eterna round: R97, puzzle: Exclusion 4)” were, in that order, 889 nM and 138 nM.
As for “AUAAUGUAAGGAUAUCAGUCGUUAAUAAUUUAAUAAUCGACUGAGAAGGUACAUGAGGAUCACCCAUGUGAUCA [E4/8-B1] (Eterna round: R97, puzzle: Exclusion 4)”, the “apparent KD of MS2 coat protein” value was determined as 350 nM (input ligand: FMN 200 uM) and 930 nM (input ligand: none).
Taken in the same sequence, the figures for “AUAAUGUCAGGAUAUCAGUCGACUAGCCUCGGCUAGUCGACUGAGAAGGGACAUGAGGAUCACCCAUGUGUUUC [E4/14-A2] (Eterna round: R97, puzzle: Exclusion 4)” were 811 nM and 569 nM.
“AUAAUGUCAGGAUAUCAGUCGUACAGCCUCGGCUGUACGACUGAGAAGGGACAUGAGGAUCACCCAUGUGGUUA [E4/7-A2] (Eterna round: R97, puzzle: Exclusion 4)”: the “apparent KD of MS2 coat protein” value (input ligand: FMN 200 uM) was 34.2 nM and the “apparent KD of MS2 coat protein” value (input ligand: none) came out at 562 nM.
The like results for “AUAAUGUCAGGAUAUCAGUCGUACAGCUUCGGCUGUACGACUGAGAAGGGACAUGAGGAUCACCCAUGUGGUUA [E4/7-A1] (Eterna round: R97, puzzle: Exclusion 4)” were, in that order, 36.4 nM and 228 nM.
Regarding “AUAAUGUGAGGAUAUAUGAAUCACGGUGAUACACCGUGAAGAUAGAAGGUACAUGAGGAUCACCCAUGUAGGGC [Mod of Anonveat 14 - Jieux - Exclusion 4] (Eterna round: R97, puzzle: Exclusion 4)”, the “apparent KD of MS2 coat protein” value came out at 39.5 nM (input ligand: FMN 200 uM) and 42.3 nM (input ligand: none).
For “AUAAUGUGAGGAUAUCAGUCGACUAGCUUCGGCUAGUCGACUGAGAAGGCACAUGAGGAUCACCCAUGUGUUUC [E4/15-A1] (Eterna round: R97, puzzle: Exclusion 4)”, the “apparent KD of MS2 coat protein” value (input ligand: FMN 200 uM) stood at 41.7 nM and the “apparent KD of MS2 coat protein” value (input ligand: none) is 18.7 nM.

(Values after the supplement of paper PMC9170038.)
